Substitutions are numbered along the chain they refer to. Numbers in names are those of the source. Where two headings read alike, the source gives them in different places. Blank lines part the entries; values can stand above or below the binder they belong to.
How the values were obtained:
[1] = biological target: the molecule itself; test: SEC; Superdex 200 HR 10/30; 20 mM Tris/acetate pH 7.6, 150 mM NaCl, 0.1 mM EDTA, 0.1 mM PMSF, 15 mM beta-mercaptoethanol; 10-120 ug protein in 100 uL loaded; apparent mass from calibration, estimated number of subunits
[2] = biological target: T1, human small heat shock protein HspB6, wild type (human), O14558; test: as above; conditions: remark: other sources report otherwise
T1 chain: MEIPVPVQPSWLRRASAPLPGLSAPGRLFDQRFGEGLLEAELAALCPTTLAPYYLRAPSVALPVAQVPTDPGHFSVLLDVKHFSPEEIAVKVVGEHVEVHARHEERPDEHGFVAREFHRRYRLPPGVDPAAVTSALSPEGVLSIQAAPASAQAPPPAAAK

[3] = biological target: T2, human small heat shock protein HspB8, wild type (human), Q9UJY1; test: SEC-SAXS; online SEC-SAXS, SWING beamline; Shodex KW404-4F; 20 mM HEPES, 150 mM NaCl, pH 7.4, 2.5 mM DTT; 5 mg/mL (230 uM) sample applied; mass from the volume of correlation; conditions: remark: other sources report otherwise
T2 chain: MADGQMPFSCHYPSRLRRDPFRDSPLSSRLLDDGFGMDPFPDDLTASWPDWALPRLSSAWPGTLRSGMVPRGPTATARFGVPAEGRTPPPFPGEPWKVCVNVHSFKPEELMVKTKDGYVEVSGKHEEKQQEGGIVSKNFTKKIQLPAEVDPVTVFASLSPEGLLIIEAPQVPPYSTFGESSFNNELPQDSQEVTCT

[4] = biological target: T2, human small heat shock protein HspB8, …; test: SEC; Superdex 200 HR 10/30; 20 mM Tris/acetate pH 7.6, 150 mM NaCl, 0.1 mM EDTA, 0.1 mM PMSF, 15 mM beta-mercaptoethanol; 10-120 ug protein in 100 uL loaded; apparent mass from calibration, estimated number of subunits; conditions: remark: other sources report otherwise
[5] = biological target: the molecule itself; test: as above; remark: listed apart in the source

B1: R21A mutant of human HspB4 (natural protein, UniProt P02489 1-173, looked up)
chain: MDVTIQHPWFKRTLGPFYPSALFDQFFGEGLFEYDLLPFLSSTISPYYRQSLFRTVLDSGISEVRSDRDKFVIFLDVKHFSPEDLTVKVQDDFVEIHGKHNERQDDHGYISREFHRRYRLPSNVDQSALSCSLSADGMLTFCGPKIQTGLDATHAERAIPVSREEKPTSAPSS
stoichiometry N [1]: ~30 monomers

B2: human small heat shock protein HspB5 (alphaB-crystallin), wild type (natural protein, UniProt P02511 1-175, looked up)
chain: MDIAIHHPWIRRPFFPFHSPSRLFDQFFGEHLLESDLFPTSTSLSPFYLRPPSFLRAPSWFDTGLSEMRLEKDRFSVNLDVKHFSPEELKVKVLGDVIEVHGKHEERQDEHGFISREFHRKYRIPADVDPLTITSSLSSDGVLTVNGPRKQVSGPERTIPITREEKPAVTAAPKK
notes: HspB5 (alphaB-crystallin), human; UniProt P02511; Expressed from pET23b; The printed monomeric mass (20.2 kDa) fits the whole protein; also called αB-crystallin; wild type HspB5; source: E. coli BL21(DE3)pLysS, purified (ammonium sulfate fractionation, HiTrap Q HP, Superdex-200 SEC)
stoichiometry N [1]: ~27 monomers

B3: R22A mutant of human HspB5 (natural protein, UniProt P02511 1-175, looked up)
chain: B2 chain with R22A
notes: HspB5 (alphaB-crystallin), human; UniProt P02511; Arg22 of the RLFDQxFG motif replaced by Ala; Expressed from pET23b; also called R22A HspB5; source: E. coli BL21(DE3)pLysS, purified (ammonium sulfate fractionation, HiTrap Q HP, Superdex-200 SEC)
stoichiometry N [1]: ~23 monomers

stoichiometry N [2]: 3 monomers
B4: human small heat shock protein HspB6, wild type, O14558 1-160 (natural protein)
chain: T1 chain

B5: R27A mutant of human HspB6 (natural protein, UniProt O14558 1-160, looked up)
chain: T1 chain with R27A
notes: HspB6, human; UniProt O14558; Arg27 of the RLFDQxFG motif replaced by Ala; Expressed from pET23b; also called R27A HspB6; R27A mutant of HspB6
stoichiometry N [1]: ~3 monomers

stoichiometry N [3]: 2 monomers
stoichiometry N [4]: 2 monomers
B6: human small heat shock protein HspB8, wild type, Q9UJY1 1-196 (natural protein)
chain: T2 chain

B7: R29A mutant of human HspB8 (natural protein, UniProt Q9UJY1 1-196, looked up)
chain: T2 chain with R29A
notes: HspB8, human; UniProt Q9UJY1; Arg29 of the RLFDQxFG motif replaced by Ala; Expressed from pET23b; also called R29A HspB8; source: E. coli BL21(DE3)pLysS, purified (ammonium sulfate fractionation, HiTrap Phenyl Sepharose, Superdex-200 SEC)
stoichiometry N [5]: 4 monomers
stoichiometry N [1]: ~3 monomers
